Measured values reported in the nanobody polyreactivity screen of Harvey et al. (2022).

Test: yeast display, Sf9 membrane polyspecificity reagent, FACS + sequencing; frameworks hold sequencing errors
Method in brief: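 A synthetic nanobody library was expressed on Saccharomyces cerevisiae BJ5465 by galactose induction for 36–48 hours. The library was stained for 1 hour at 4 °C with 10% biotinylated, detergent-solubilized Sf9 membrane reagent and enriched with streptavidin microbeads before FACS. Low and high (top ~1%) gates were set on anti-HA fluorescence for expression and streptavidin fluorescence for reagent binding, and each polyreactivity label reflects the gate of origin.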

Sequence	polyreactivity (PSR sort gate)
QVQLVESGGGLVQAGGSLRLSCAASGSTFGINAMGGYRPAPGKERELVAAITASGGRTYYADSVKGRFTISRDNAKNTVYLQMNSLKPEDTAVYYCAAGFYPYYYWGQGTQVTVSS	low polyreactivity
QVQLVESGGGLVQAGGSLRLSCAASGNTFYVNVMGWYRQAPGKEREFVAAISTRGVSTSYADSVKGRVTISRDNAKNTVYLQMNSLKPEDTAVYYCAASFRRPQPKGSTYGYWGQGTQVTVSS	high polyreactivity
QVQLVESGGGLVQAGGSLRLSCAASGFTFDNYAMGWYRQAPGKERELVAAISSGGGRTYYADSVKGRFTISRDNAKNTVYLLMNSLKPEDTAVYYCAAVTLYKRYDYWGQGTQVTVSS	high polyreactivity
QVQLQEGGGLVQAGGSLRLSCAASGYISSRPAMGWYRQAPGKERAFVATIADGTSTYYADSVKGRFTISRDNAINTVYLQMNSLKPEDTSVYYWAAAYNTEFDLSYWGQGTQVTVSS	high polyreactivity
QVQLVESGGGLVQAGGSLRLSCAASGSIFDYYTMGWYRQAPGKERELVAVIDNSGGSTYYADSVKGRFTISRDNAKNTVYLQMNSLKPEDTAVYYCARRFYNYVSYSNGGATLYDYWGQGTQVTVSS	high polyreactivity
QVQLVESGGGLVQAGGSLRLSCAASGSTFDRNAMGWYRKAPGKERELVAAISKRSGSTYYADSVKGRFTISRDNAKNTVYLQMNSLKPEDTAVYYCAADRISYRGMGSWGQGTQVTVSS	high polyreactivity
QVQLVESGGGLVQAGGSLRLSCAASGGIFPYYVMGWYRQAPGNEMELVAAINSGGTTYYADSVKGRFTISRDNAKNTVYLQMNILKPEDTAVYYCAAYYAGFGYNYWGQGTQVTVSS	low polyreactivity
QVQLVESGGGLVQAGGSLRLSYAPSGRTFGYYAMGWYRQAPGKERELVAAIRSTGSTNYADSVKGRFTISRDNAKNTVYLQMNRLKPEDTAVYYCNAKRRFRYDYWGQGTQVTVSS	low polyreactivity
QVQLVESGGGLVQAGGSLRLSCAASGTTFGGNSMGWYRQAPGKERELVAAIDSGGSTYADSVKGRFTISRDNAKNTVYLQMNSLKPEDTAVYYCAAVWEFVHYWRFDYWGQGSQVTVSS	low polyreactivity
QVKLVESGGGLVQAGGSLRLICAASGNTFGPYDMGWYRQAPGKERQLVAGITSGGSTYYADSVKGSFTITRDNAKNTVYLQMNSLKPEDTAVYYCAADYYLWVYWYDYWGQGTQVTVSS	high polyreactivity
QVQLVESGGGLVQAGGSLRLSCAASGRTFDRYAMGWYRQAPGKERELVAVIRFIGGSTYYADSVKGRFTISRDNAKNTVYLQMISLKPEDTAVYFCAADATIDWVDYDYWGQGTQVTVSS	low polyreactivity
QVQLVESGGGLVQAGGSLRLSCAASGLALGWYRQAPGKERELVAVITSDGRTYYADSVKGRFTISRDNAKNTVYLQLNSLKPEDTAVYYCARDSRTIRYYAWFYPFRYDYWGQGTQVTVSS	low polyreactivity
QVQLVESGGGLVQAGGSLRLSCADSGSILTRNAMGWYRQAPGKERELVAAISYSGVRTYYADSVKGRFTISRDNAKNNVYLQMNSLKQEDTAVYYCNAVISSRYDYWGQGTQVTVSS	high polyreactivity
QVQLVESGGGLVQAGGSLRLSCAASGNTFGKYAMGWYRHAPGKERELVAAISKSSGSTYYADSVKGRFTLSRDNAKNTVYLQMNSLKPEDTAVYYCAACWYSYRYSRLGFGSWGQGTQVTVSS	high polyreactivity
QVQLVESGGGLVQAGGSLRLSCAASGSTFTSSAMGWYRQAPGKERELVAAISKSGGSTYYADSVKGRFTLSRDNAKNTVYLQMNSLKPEDTAVYYCAARYNVRSYSTSRFDYWGQGTQVTVSS	low polyreactivity
QVQLVKSGGGLVQAGGSLRLSCAASGFTFFVYAMGWYRPAPGKERELVAAITSSGGSTYYADSVKGRFTISRDNAKNTVYLQMNSLKPEDTAVYYCAADRYSYLGYPYEYEYWGQGTQGTVSS	low polyreactivity

Sequence	polyreactivity (PSR sort gate)
QVQLVESGGGLVQAGRTLRLSCAASGFTFYYNAMGWYRQAPGKERELVATITGSTYYADSVKGLFTISRDNATYSVYLQMNSLKPEDTAVYYCTADASLVLAEYDYWGQGTQVTVSS	low polyreactivity
QVQLVESGGGLVQAGGSLPLSCAASGFNFRSYAMGWYRQAPGTERELVAAISSGGSTYYADSVKGRFTISRDNAKNTVYLQMNSLKPEDTAVYYCGASRYYGYGHWGQGTQVTVSS	high polyreactivity
QVQLVESGGGLVQAGGSLRLSCAASGFILSWYAMGWYRQAPGKERELVAGISRRGGSTYYADSVTGRFTISRDNAKNTVYLQMNSLKPEDTAVYYCNALYDDWSVSTGDYWGQGTQVTVSS	high polyreactivity
QVQLVESGGGLVQAGGSLRLSCAASGSTFSYYAMGWYRQAPGKERELVAAITKRGGSTYYADSVKGRFTISRDNAKNTVYLQMNSLKPEVTAVYYCAAKRKSYYSYNFDYWGQGTQVTVSS	high polyreactivity
QVQLVESGGGLVQAGGSLRLSCAASGRIFDTYVMGWYRQAPGKERELVAAISRSGGSTYYADSVKGRFTISRDNAKNTVYLQMNSLKPEDTAVYYCNKLASWWSAYYNPYEYWGQGTQVTVSS	high polyreactivity
QGQLVESGGGLVQAGGSLRLSCAASGYTFNYNTMGWYRQAPGKVRELVAAINTSGSTYYADSVKGRFTISRDNAKNTVYLQMNSLKPEDTAVYYCAVRVAYKYNYWGQGTQVTVSS	high polyreactivity
QVQLVESGGGLVQAGGSLRLSCAASGFIFDYYAMGWYRQAPGKERELVAAITSRSGSTYYADSVKGRFTISRDNAKNTVYLQMNSLKPEDTAVYYCARRFKYGSTAWRFYYWGQGTQVSVSS	high polyreactivity
QVQLVESGGGLVQAGGSLRLSCAASGSTFDAYAMGWYRQAPGKERELVAAITWSGGSTYYADSVKGRFTISRDNAKNTVYLEMNSLKPEDTAVYYCAADKLGELDYWGQGTQVTVSS	low polyreactivity
QVQLVESGGGLVQAGGSLRLSCAASGRTFEGNAMGWYRQAPGKERELVAAISGSGGRTYYADSVKGRFTISRDHAKNTVYLPMNSLKPEHTAVYYATLYSVYNPWRFNYWGQGTQVTVSS	high polyreactivity
QVQLVESGGGLLQAGGSLRLSCASSGSTFYTNDMGWYRPAPGKERELVAAITSAGNTNYADSVKGRFTISRDNAKNTVYLQMNSLKPEDTAVYYYYYYQYDYWGQGTQVTVSS	low polyreactivity
QVQLVESGGGLVQAGGSLRLSCAPSGRTFYTYAMGWYRQAPGKERELVAAITRRGGSTFYADSVKGRFTISLDNAKNPVDLQMNSLKPEDTAVYYCAAGVVWSYSLYSIYEYDYWGQGTQVTVSS	high polyreactivity
QVQLVESGGGLVQAGGRLRLSCAASGITFNSYAMGWYRQAPGKERELVAAITLTGGTTYYADSVKGRFTISRDNAKNTVYLQKNSLKPEDTAVYYCAAQYWWWSRFEYDSWGQGTQVTVSS	low polyreactivity
QVQLVESGGGLVQAGGSLRLSCAASGSTFPAYTMGWYRQAPGKERELVAAINVSSGGSTYYADSVKGRFTISRDNAKNTVYLQMNSLKPEDTAVYYCATRYVTTGYDYWGQGTQVTVSS	low polyreactivity
QVQLVESGGGLVQAGGSLRLSCAASGRTFGYYAMGWYRQAPGKERELVAAISWRGTSTYYADSVKGRFTISRDNAKNTVYLQMNSLKPEDTAVYYCNRYTTRYYPGGDYWGQGTQVTVSS	high polyreactivity
QVQLVESGAGLVQAGGILRLSCAASGSTFIYNAMGWYIQAPGKERELVAAISARTGNTYYADSVKGRFTISRDNAKNTVYLQMNSLKPEDTAVYYCARRGFRRGGGPSRYYWYDYWGQGTQVTVSS	high polyreactivity
QVQLEESGGGLVQAGGSLRLICAASGSTFYPNAMGWYRQAPGKERELVAAITDSVGTTNYADSVKGRFTISRDNAKNTVYLQMNSLKPEDTAVYYCAKVKSYWNGYRYYYWGHGTQVTVSS	low polyreactivity
